From the supplement of paper PMC6379048

Legend:
Assay in all cases: Kd (EC50 corrected by depletion factor)
[1] = molecular target: T1, SF3B3 (UniProt Q15393)
T1 sequence: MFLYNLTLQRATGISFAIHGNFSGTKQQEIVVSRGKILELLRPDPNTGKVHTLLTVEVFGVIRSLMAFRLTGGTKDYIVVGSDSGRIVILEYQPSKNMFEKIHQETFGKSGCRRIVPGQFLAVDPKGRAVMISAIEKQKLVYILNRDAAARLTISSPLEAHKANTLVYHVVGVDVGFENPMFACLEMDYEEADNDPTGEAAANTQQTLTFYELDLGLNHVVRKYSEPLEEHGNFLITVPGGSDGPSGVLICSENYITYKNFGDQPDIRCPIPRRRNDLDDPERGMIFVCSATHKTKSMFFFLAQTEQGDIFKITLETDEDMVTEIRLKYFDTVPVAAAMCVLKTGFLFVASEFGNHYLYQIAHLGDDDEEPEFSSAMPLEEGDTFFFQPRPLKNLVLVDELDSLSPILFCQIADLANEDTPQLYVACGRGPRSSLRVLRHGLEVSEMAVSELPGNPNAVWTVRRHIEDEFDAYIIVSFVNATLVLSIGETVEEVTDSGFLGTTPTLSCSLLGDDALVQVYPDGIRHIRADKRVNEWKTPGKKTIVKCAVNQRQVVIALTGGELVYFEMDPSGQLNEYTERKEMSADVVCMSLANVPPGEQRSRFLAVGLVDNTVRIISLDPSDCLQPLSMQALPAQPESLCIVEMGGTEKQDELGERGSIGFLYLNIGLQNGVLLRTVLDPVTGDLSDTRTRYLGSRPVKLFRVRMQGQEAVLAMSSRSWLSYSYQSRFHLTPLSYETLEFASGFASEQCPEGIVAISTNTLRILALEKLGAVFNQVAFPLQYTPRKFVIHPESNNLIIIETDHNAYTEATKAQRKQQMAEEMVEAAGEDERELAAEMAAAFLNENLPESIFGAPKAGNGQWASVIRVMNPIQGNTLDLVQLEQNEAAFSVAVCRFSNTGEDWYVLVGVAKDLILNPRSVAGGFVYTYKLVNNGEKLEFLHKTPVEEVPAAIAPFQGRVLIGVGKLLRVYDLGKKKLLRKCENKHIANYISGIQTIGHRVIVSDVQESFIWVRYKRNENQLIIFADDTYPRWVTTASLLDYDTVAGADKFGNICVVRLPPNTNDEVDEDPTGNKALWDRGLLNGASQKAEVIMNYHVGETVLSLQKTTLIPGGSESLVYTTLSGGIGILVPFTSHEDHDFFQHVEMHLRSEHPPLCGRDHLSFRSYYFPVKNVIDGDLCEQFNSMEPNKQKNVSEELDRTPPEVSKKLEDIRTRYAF
In short: (§1)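 Free RNA oligos (0 nM to 30 μM) competed for 1 h at 4°C in HEK293-FT lysate (2.5 mg protein/well) before a 30 min, 4°C pulldown with the same oligos on NHS-Sepharose beads. Bound proteins were quantified by label-free LC-MS/MS and normalised to the control. Kd was found by multiplying EC50, from a four-parameter log-logistic fit, by a protein-dependent depletion factor.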

[2] = molecular target: MRPL39 (UniProt Q9NYK5)
In short: as §1

[3] = molecular target: T2, CDKN2AIP (UniProt Q9NXV6)
T2 sequence: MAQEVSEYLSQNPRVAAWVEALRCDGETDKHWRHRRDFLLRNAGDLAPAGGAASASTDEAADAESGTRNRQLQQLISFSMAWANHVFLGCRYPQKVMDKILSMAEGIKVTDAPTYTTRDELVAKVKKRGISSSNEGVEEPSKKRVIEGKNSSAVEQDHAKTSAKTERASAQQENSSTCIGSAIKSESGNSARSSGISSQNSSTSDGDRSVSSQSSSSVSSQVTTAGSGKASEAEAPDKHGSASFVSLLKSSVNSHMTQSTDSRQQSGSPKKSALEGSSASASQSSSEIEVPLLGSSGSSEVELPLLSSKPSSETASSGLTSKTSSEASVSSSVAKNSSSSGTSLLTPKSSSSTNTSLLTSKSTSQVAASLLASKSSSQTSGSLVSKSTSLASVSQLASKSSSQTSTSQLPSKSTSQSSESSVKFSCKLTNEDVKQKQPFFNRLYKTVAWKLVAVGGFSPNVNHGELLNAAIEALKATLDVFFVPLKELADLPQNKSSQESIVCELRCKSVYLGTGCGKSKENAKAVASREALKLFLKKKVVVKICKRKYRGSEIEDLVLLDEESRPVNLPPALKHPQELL
In short: as §1

Work on AAUAAA yielded a Kd [1] of 669 nM.
Sequence CUGUCCU has a Kd [2] of 101 nM.
In the case of UAUUUAU, the Kd [3] is reported as 368 nM.
